{
  "source": "patent US8637043B2",
  "about": "“Compositions useful as ligands for the formyl peptide receptor like 1 receptor and methods of use thereof” (Chemocentryx, Inc., priority 2001, dated 2014)",
  "molecules": {"B1": {"name": "CKβ8(25-99): known truncated CKβ8 variant, human recombinant chemokine from R&D Systems (protein, listed as Homo sapiens)", "chain": "RFHATSADCCISYTPRSIPCSLLESYFETNSECSKPGVIFLTKKGRRFCANPSDKQVQVCMRMLKLDTRIKTRKN"}, "B2": {"name": "CKβ8-1(1-116): alternatively spliced form of CKβ8, 116 amino acids, human recombinant chemokine (protein, listed as Homo sapiens)", "chain": "RVTKDAETEFMMSKLPLENPVLLDMLWRRKIGPQMTLSHAAGFHATSADCCISYTPRSIPCSLLESYFETNSECSKPGVIFLTKKGRRFCANPSDKQVQVCMRMLKLDTRIKTRKN"}, "B3": {"name": "CKβ8-1(25-116): novel NH2-terminal truncated form of CKβ8-1, SEQ ID NO: 16, human recombinant chemokine (protein, listed as Homo sapiens)", "chain": "MLWRRKIGPQMTLSHAAGFHATSADCCISYTPRSIPCSLLESYFETNSECSKPGVIFLTKKGRRFCANPSDKQVQVCMRMLKLDTRIKTRKN"}},
  "key": {"human neutrophils": {"system": "human neutrophils", "assay": "Calcium flux in human neutrophils", "assay_type": "cell-based", "conditions": "for calcium flux: human neutrophils", "experimental": "(§1) Ca^2+ mobilization responses were performed using the intracellular ratiometric fluorescent dye, lndo-1. Cells were loaded with Indo-1/AM (3 μM; Molecular Probes, Eugene, Oreg.) in culture medium (45 min, 20° C., 10^7 cells/ml). After dye loading, cells were washed once with 10 ml PBS) and resuspended at 10^6 cell/ml in HBSS containing 1% FBS. Cytosolic [Ca^2+] release was determined using excitation at 350 nm using a Photon Technology International fluorimeter (excitation at 350 nm, ratioed dual emission at 400 and 490 nm).\nThe human recombinant chemokines, leukotactin, MlP-1α, three known CKβ8 variants CKβ8(1-99), CKβ8(25-99), CKβ8-1(1-116) and a novel NH2-terminal truncated form of CKβ8-1, CKβ8-1 (25-116) were obtained from R&D Systems (Minneapolis, Minn.). Human monocytes were generated from buffy coats (Stanford Blood Center, Palo Alto, Calif.) following a standard protocol. Briefly, PBMC were isolated by standard density gradient centrifugation (Ficoll-Paque-Plus, Pharmacia). Monocytes were purified using CD14 Microbeads (Miltenyi, Auburn, Calif.) magnetic positive selection. Human neutrophils were isolated from fresh peripheral blood from healthy individuals by gradient centrifugation on Ficoll-Hypaque (Hyclone, Calif.).\nHuman monocytes were either generated from buffy coats (Stanford Blood Center, Palo Also, Calif.) or from fresh blood of healthy individuals following a standard protocol. Briefly, PBMC were isolated by a Ficoll-Paque gradient centrifugation (Ficoll-Paque-Plus, Pharmacia). Monocytes were purified by CD14 Microbeads (Miltenyi) magnetic positive selection. Human neutrophils were isolated from fresh blood by dextran sedimentation and gradient centrifugation Ficoll-Paque gradient centrifugation. All cells were washed and resuspended (1×10^7/ml) in RPMI medium with 10% FBS.\nas §1, with “an” for “the”, “Indo-1.” for “lndo-1.”, “Probes (Eugene, Oreg.))” for “Probes, Eugene, Oreg.)”, “cells/mi).” for “cells/ml).”, “(10” for “with 10”"}, "CCR1": {"molecular_target": "T1, CCR1 (Homo sapiens, UniProt P32246)", "T1 construct": "full length cDNA encoding CCR1 was cloned by the polymerase chain reaction (PCR) from genomic DNA isolated from human peripheral blood cells; expressed in transfected cells; pcDNA3.1 vector)", "T1 sequence (P32246 1-355)": "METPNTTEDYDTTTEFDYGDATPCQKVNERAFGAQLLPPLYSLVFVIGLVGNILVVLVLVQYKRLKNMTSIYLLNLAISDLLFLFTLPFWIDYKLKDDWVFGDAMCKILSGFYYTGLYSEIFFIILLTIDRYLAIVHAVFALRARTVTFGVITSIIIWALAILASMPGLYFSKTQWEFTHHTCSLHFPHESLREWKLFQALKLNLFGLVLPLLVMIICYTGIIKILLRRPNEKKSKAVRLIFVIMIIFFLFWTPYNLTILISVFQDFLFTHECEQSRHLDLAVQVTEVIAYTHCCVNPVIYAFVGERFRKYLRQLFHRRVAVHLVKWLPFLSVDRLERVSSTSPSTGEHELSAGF", "assay": "Intracellular calcium flux in HEK293-CCR1 transfectants", "assay_type": "cell-based", "conditions": "100 nM; for maximal receptor stimulation compared with leukotactin: same concentration of leukotactin; for calcium flux: HEK293-CCR1 transfectants", "experimental": "The human recombinant chemokines, leukotactin, three known CKβ8 variants CKβ8(1-99), CKβ8(25-99), CKβ8-1(1-116) and a novel NH2-terminal truncated form of CKβ8-1, CKβ8-1 (25-116) were obtained from R&D Systems (Minneapolis, Minn.). CKβ8-1(25-116) was compared with the other three variants for the ability to elicit an intracellular calcium mobilization in stable human CCR1 transfected […] cells. Human HEK293-CCR1 cells were prepared using Fugena 6 (Roche, Ind.) following the manufacturer's protocol. The HEK-293 cell lines were maintained in DMEM with 10% FBS supplemented with 800 μg/ml G-418.\nStable expression of human chemokine receptor CCR1 in HEK293 cell was obtained as follows: full length cDNA encoding CCR1 was cloned by the polymerase chain reaction (PCR) from genomic DNA isolated from human peripheral blood cells. The PCR product was cloned into pcDNA3.1 (Invitrogen, Carlsbad, Calif.) using standard molecular cloning procedures and completely sequenced to confirm identity.\nTwo micrograms of the CCR1/pcDNA3.1 construct were used to transfect the HEK293 cells as follows. FuGENE:DNA complex was prepared by mixing 6.0 μl FuGENE 6 reagent (Roche Molecular Biochemicals, Calif.) and 2 μg CCR1/pcDNA3.1 in 100 ul of serum-free medium (Hyclone, Colo.). After incubating for 30 minutes at room temperature, the complex was added to a 60 mm culture plate containing 0.5-1×10^6 cells in 10 ml DMEM medium supplemented with 10% FBS (Hyclone, Colo.). After mixing, the cells were returned to the incubator to culture at 37° C. for two days. At 48 hours post-transfection, Genetinin (G418) (Mediatech, Herndon, Va.) was added at a final concentration of 800 ug/ml. The cells were then plated in 96-well plates at a concentration of 20,000 cells/well. After 2-3 weeks under G418 selection, stable geneticin-resistant CCR1 expressing cells were assessed for their ability to mobilize calcium in response to MIP-1α at a concentration of 1-500 nM.\nas §1\nWith HEKCCR1-293 transfectants, CKβ8-1(25-116) and the other CKβ8 variants induced a rapid calcium flux at 100 nM."}, "monocytes": {"system": "monocytes", "assay": "Cross-desensitization with leukotactin, monocytes", "assay_type": "cell-based, human", "experimental": "In cross-desensitization tests tests, cells were stimulated sequentially with leukotactin and then the chemokines CKβ8(1-99), CKβ8(25-99), CKβ8-1(1-116), and CKβ8-1(25-116). On HEK293-CCR1 transfectants (prepared as in Example 1), leukotactin induced similar patterns of receptor desensitization to all variants.\nSimilar receptor cross-desensitization tests were performed using both monocytes and neutrophils (prepared as in Example 2)."}},
  "note": "Entries after “also recorded” stand apart in the source; their conditions may differ. Ends that are not written are not given here.",
  "data": [
    {"molecule": "MLWRRKIGPQMTLSHAAY [SEQ ID NO: 6]", "values": [
      {"measurement": "calcium flux", "setting": "human neutrophils; Example 8", "value": "robust calcium flux"}
    ]},
    {"molecule": "MLWRRKIGPQMTLSHAAG [SEQ ID NO: 1]", "values": [
      {"measurement": "calcium flux", "setting": "human neutrophils; Example 8", "value": "robust calcium flux"}
    ]},
    {"molecule": "B1", "values": [
      {"measurement": "maximal receptor stimulation compared with leukotactin", "setting": "CCR1", "value": "equivalent to those obtained with the same concentration of the CCR1 agonist, leukotactin"},
      {"measurement": "calcium flux", "setting": "CCR1", "value": "high calcium response; also recorded: lower"},
      {"measurement": "calcium flux", "setting": "human neutrophils; 100 nM", "value": "neither MlP-1α nor CKβ8(1-99), CKβ8(25-99) or CKβ8(1-116) induced a calcium flux"},
      {"measurement": "desensitization by leukotactin prestimulation", "setting": "monocytes", "value": "completely desensitized"}
    ]},
    {"molecule": "B2", "values": [
      {"measurement": "calcium flux", "setting": "CCR1", "value": "lower"},
      {"measurement": "calcium flux", "setting": "human neutrophils; 100 nM", "value": "neither MlP-1α nor CKβ8(1-99), CKβ8(25-99) or CKβ8(1-116) induced a calcium flux"},
      {"measurement": "desensitization by leukotactin prestimulation", "setting": "monocytes", "value": "completely desensitized"}
    ]},
    {"molecule": "B3", "values": [
      {"measurement": "maximal receptor stimulation compared with leukotactin", "setting": "CCR1", "value": "equivalent to those obtained with the same concentration of the CCR1 agonist, leukotactin"},
      {"measurement": "calcium flux", "setting": "CCR1", "value": "high calcium response"},
      {"measurement": "calcium flux", "setting": "human neutrophils; 100 nM", "value": "induced an unique calcium release"},
      {"measurement": "calcium flux", "setting": "human neutrophils; Example 8", "value": "robust calcium flux"},
      {"measurement": "magnitude of calcium release compared with leukotactin", "setting": "human neutrophils; neutrophils, same amount of leukotactin", "value": "much higher than observed for the same amount of leukotactin stimulation"},
      {"measurement": "desensitization by leukotactin prestimulation", "setting": "monocytes", "value": "did not desensitize"}
    ]}
  ]
}
